Measured values as given in US20110300147A9, “Inhibiting tumor cell invasion, metastasis and angiogenesis” (The Scripps Research institute, priority 2005, published 2011).
Read-outs that look alike come from different tables or passages of the source. Numbered stars: 1 amine (or outer) side, 2 acyl side, 3 side chain; on linkers, the order of the positions; unused ones are H or OH. Peptide text beside a SMILES is read from it. * marks the point of attachment. Doxorubicin(3'-N) = COc1cccc2c1C(=O)c1c(O)c3c(c(O)c1C2=O)C[C@@](O)(C(=O)CO)C[C@@H]3O[C@H]1C[C@H](N*)[C@H](O)[C@H](C)O1; Suc = O=C(CCC(=O)[*:2])[*:1]

Tests used:
[1] = tested on: HTP cells; assay: WST-1 cytotoxicity assay, HTP cells; assay type: cell-based; conditions: 50% cell death, 48 h
Description: Cytotoxicity assays. The WST-1 cell proliferation reagent (Roche Molecular Chemicals, Germany) was used to determine cell proliferation by quantization of cellular metabolic activity. […] Subsequently, 10 μl of WST-1 solution (1 mg/ml WST-1, 25 μM -methyldibenzopyrazine methyl sulfate) was added per well, and mixtures were incubated for an additional 4 h. The tetrazolium salt WST-1 (4-[3-(4-Iodophenyl)-2-(4-nitrophenyl)-2H-5-tetrazolio-1,3-benzene disfonate) was cleaved by the mitochondrial succinate-tetrazolium-reductase system to formazan in cells in direct correlation with the number of metabolically viable cells in the culture. The amount of formazan salt was quantified in three replicates by absorbance at 450 nm using a micro-plate reader (Molecular Devices, Palo Alto, Calif.). All results were derived from replicate experiments with similar results.

[2] = tested on: CT26 murine colon carcinoma; assay: CT26 syngeneic murine colon carcinoma model; assay type: in vivo, Balb/c mice
Description: Animal models. […] Balb/C mice aged 4 to 6 weeks from the breeding colony were inoculated with 500,000 syngeneic CT26 tumor cells per site subcutaneously in the back. […] Treatment was repeated at 2 day intervals. The human 293 tumor models were generated in WEHI nude mice (The Scripps Research Institute breeding colony). […] Tumor growth and physical signs were monitored daily including any gross evidence of tumor necrosis, local tumor ulceration as well as evidence of toxicity including mobility, response to stimulus, eating, and weight of each animal. These procedures have been reviewed and approved by the Institutional Animal Care and Use Committee at The Scripps Research Institute. The work was conducted in The Scripps Research Institute facilities which are accredited by the Association for the Assessment and Accreditation of Laboratory Animal Care. The Scripps Research Institute maintains an assurance with the Public Health Service, is registered with the United States Department of Agriculture and is in compliance with all regulations relating to animal care and welfare.
Animal models. […] Treatment was three times per week for two weeks.

[3] = tested on: cardiac myocytes; conditions: for apoptosis of cardiac myocytes (TUNEL): treated mice
[4] = tested on: control 293 cells; assay: WST-1 cytotoxicity assay, control 293 cells; conditions: Homo sapiens, HEK293, 48 h
Description: (§1) Cytotoxic assays. The WST-1 cell proliferation reagent (Roche Molecular Chemicals, Germany) was used to determine cell proliferation by quantification of cellular metabolic activity. Control 293 cells and legumain+ 293 cells were cultivated in microtiter plates (5×10^3 cells per well in 100 μl) and were incubated with serial concentrations of legubicin or doxorubicin for 48 h. Subsequently, 10 μl of WST-1 solution (1 mg/ml WST-1, 25 μM -methyldibenzopyrazine methyl sulfate) was added per well, and mixtures were incubated for an additional 4 h. The tetrazolium salt WST-1 (4-[3-(4-lodophenyl)-2-(4-nitrophenyl)-2H-5-tetrazolio-1,3-benzene disfonate) was cleaved by the mitochondrial succinate-tetrazolium-reductase system to formazan in cells which directly correlates to the number of metabolically viable cells in the culture. The amount of formazan salt was quantified in three replicates by absorbance at 450 nm using a micro-plate reader (Molecular Devices, Palo Alto, Calif.).
(§2) Cytotoxicity assays. The WST-1 cell proliferation reagent (Roche Molecular Chemicals, Germany) was used to determine cell proliferation by quantization of cellular metabolic activity. […] The amount of formazan salt was quantified in three replicates by absorbance at 450 nm using a micro-plate reader (Molecular Devices, Palo Alto, Calif.).

[5] = tested on: legumain+ 293 cells; assay: WST-1 cytotoxicity assay, legumain+ 293 cells
Description: as §1, §2

[6] = gross toxicity (weight loss, death) of treated mice; assay type: in vivo
Description: Tumor growth and signs of physical discomfort were monitored daily. Such signs included any gross evidence of tumor necrosis, local tumor ulceration as well as evidence of toxicity including changes in the animal's mobility, response to stimulus, piloerection, eating, and weight. These procedures have been reviewed and approved by the Institutional Animal Care and Use Committee at The Scripps Research Institute. All the experiments were conducted in The Scripps Research Institute facilities which are accredited by the Association for the Assessment and Accreditation of Laboratory Animal Care. The Scripps Research Institute maintains an assurance with the Public Health Service, and is registered with the United States Department of Agriculture and is in compliance with all regulations relating to animal care and welfare.

[7] = in vivo; design: species or system Balb/c male mice; conditions: male, Balb/c, mouse
[8] = tested on: control 293 cells; assay: Dox and LEG-3 uptake assay, cells not expressing legumain
Description: Dox and LEG-3 uptake assay. Legumain^+ 293 cells or control 293 cells (2.5×10^5 cells/well) were seeded in six-well plates. The culture plates were then incubated for 24 h at 37° C. and 5% CO2, and the medium in each well was replaced with 2 ml of serum-free, antibiotic-free medium containing various concentrations of Dox or LEG-type prodrug compounds. The cells were incubated 1.5 h then washed three times with 2 ml of cold PBS. At this point, cell nuclear positivity for Dox could be analyzed by fluorescent microscopy. For quantitative assays the cells were then lysed by adding 0.5 ml of water and gently rotated on an orbital shaker for 5 min at room temperature. The lysed cells were added to 1.5 ml acidified ethanol, and incubated at 4° C. in the dark for 3 h. Total Dox and LEG content was measured fluorometrically using a Perkin-Elmer LS-50-B spectrofluorometer (excitation: 470 nm; emission: 590 nm). Fluorescence intensity was translated to drug concentration by use of a standard curve prepared from Dox and LEG solutions in cell lysates that were not previously exposed to the drug. Results are expressed as the mean±SD of at least three replicates for each experiment.

[9] = mouse, in vivo, iv
[10] = molecular target: legumain (Homo sapiens, UniProt Q99538); assay: cleavage of LEG compounds by legumain; assay type: biochemical
legumain, sequence (Q99538 18-323, species assumed): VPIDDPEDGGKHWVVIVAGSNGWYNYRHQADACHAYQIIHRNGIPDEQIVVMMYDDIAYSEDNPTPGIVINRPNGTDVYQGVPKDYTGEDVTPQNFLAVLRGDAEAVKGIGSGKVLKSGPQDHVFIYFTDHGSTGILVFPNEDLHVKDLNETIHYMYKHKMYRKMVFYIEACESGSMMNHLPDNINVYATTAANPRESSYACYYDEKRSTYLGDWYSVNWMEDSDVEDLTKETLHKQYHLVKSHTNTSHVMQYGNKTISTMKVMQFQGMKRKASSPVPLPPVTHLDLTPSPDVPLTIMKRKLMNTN

[11] = tested on: legumain expressing cells; assay: Dox and LEG-3 uptake assay, legumain expressing cells; assay type: cell-based, human; conditions: legumain expressing cells in culture
Description: Dox and LEG-3 uptake assay.

[12] = tested on: peripheral blood leukocytes; assay: marrow toxicity, peripheral blood leukocyte counts; assay type: in vivo, Balb C mice; conditions: six times in twelve days
Description: Determination of marrow toxicity. […] On day 7, retro-orbital sinus blood samples were collected into 10 mM EDTA, and counted by hemocytometer after lysis of red blood cells with an acidified methyl violet solution.

[13] = tissue distribution in mice bearing CT26 colon carcinomas; assay type: in vivo; conditions: twelve hours post injection
Description: Tissue distribution. LEG compounds or Dox was injected i.p. into mice, 12 h later the animals were perfused and the Dox autofluorescence was measured following homogenization in 50% ethanol and then diluted with an equal volume of 50% ethanol containing 0.6 M HCl. Fluorescence measurements were obtained with excitation at 470 nm and emission at 590 nm, concentrations were derived by conversion from a Dox standard curve. Tissues from saline injected mice provided controls. Blood samples were to 0.75 ml with PBS, centrifuged, the pellets washed with PBS and Dox extracted with ethanol, 0.3 M HCl.
Legumain is selectively functional in the tumor microenvironment.

[14] = plasma pharmacokinetics in mice bearing CT26 tumors; conditions: single intravenous bolus, MTD of Dox and molar equivalent of LEG-3, CT26 tumor mice

SMILES: COc1cccc2c1C(=O)c1c(O)c3c(c(O)c1C2=O)C[C@@](O)(C(=O)CO)C[C@@H]3O[C@H]1C[C@H](N)[C@H](O)[C@H](C)O1 [Dox, doxorubicin, reference compound]
- EC50 [1]: 1500 nM
- anti-tumor efficacy ([2]; doses approaching its maximum tolerable dose (MTD)): failed to produce similar anti-tumor efficacy
- toxicity ([2]; i.p. 5 mg/kg three times at 2 day intervals): fatal
- apoptosis of cardiac myocytes (TUNEL) [3]: marked apoptosis
- EC50 [4]: 1200 nM
- cytotoxic effect on legumain+ 293 cells [5]: only slightly more resistant
- Average weight loss (%) ([6]; Dose 1.72 μmol/kg): 24%
- Death (%) ([6]; Dose 1.72 μmol/kg): 35%
- Average weight loss (%) ([6]; Dose 5.4 μmol/kg): 28%
- Death (%) ([6]; Dose 5.4 μmol/kg): 75%
- LD50 ([7]; ip): 17.2 µmol/kg
- MTD ([7]; ip): 9.8 µmol/kg
- LD50 at 5 days ([7]; ip, i.p. 5×): 3.4 µmol/kg
- MTD at 5 days ([7]; ip, i.p. 5×): 2.8 µmol/kg
- LD50 ([7]; iv): 25.8 µmol/kg
- MTD ([7]; iv): 18.2 µmol/kg
- LD50 at 5 days ([7]; iv, i.v. 5×): 5.1 µmol/kg
- MTD at 5 days ([7]; iv, i.v. 5×): 3.2 µmol/kg
- cell uptake [8]: rapidly entered cells
- decline of plasma concentration [9]: very rapidly declined

SMILES: COc1cccc2c1C(=O)c1c(O)c3c(c(O)c1C2=O)C[C@@](O)(C(=O)CO)C[C@@H]3O[C@H]1C[C@H](NC(=O)[C@H](CC(C)C)NC(=O)[C@H](CC(N)=O)NC(=O)[C@@H](NC(=O)CCNC(=O)CCC(=O)O)[C@@H](C)O)[C@H](O)[C@H](C)O1 [LEG-2, N-Succinyl-β-alanyl-L-threoinyl-L-Asparaginyl-L-Leucyl-Doxorubicin]
- in vivo tumoricidal activity ([2]; mice bearing CT26 tumors): demonstrable in vivo tumoricidal efficacy
- cleavage by legumain [10]: are cleaved by legumain

SMILES: COc1cccc2c1C(=O)c1c(O)c3c(c(O)c1C2=O)C[C@@](O)(C(=O)CO)C[C@@H]3O[C@H]1C[C@H](NC(=O)[C@H](CC(C)C)NC(=O)[C@H](CC(N)=O)NC(=O)[C@H](C)NC(=O)[C@H](C)NC(=O)CCC(=O)O)[C@H](O)[C@H](C)O1 [LEG-3] (Suc-AANL-{Doxorubicin(3'-N)})
- cell uptake [11]: the end product Dox was found in cells
- histological evidence of cardiac toxicity ([3]; 49.4 μmol/kg): no histological evidence of cardiac toxicity
- apoptosis of cardiac myocytes (TUNEL) [3]: not observed
- reduction of total WBC counts ([12]; 4.94 μmol/kg): no reductions
- reduction of total WBC counts ([12]; 10-fold higher dose than 4.94 μmol/kg): only a slight reduction
- concentrations in cardiac, liver, kidney, spleen and lung tissues compared to Dox [13]: reduced
- content in tumor tissues relative to Dox ([13]; CT26 tumors): more than 10 fold
- decline of plasma concentration [14]: much slower
- Average weight loss (%) ([6]; Dose 1.97 μmol/kg): 3%
- Death (%) ([6]; Dose 1.97 μmol/kg): 0%
- Average weight loss (%) ([6]; Dose 4.9 μmol/kg): 5%
- Death (%) ([6]; Dose 4.9 μmol/kg): 0%
- Average weight loss (%) ([6]; Dose 49.4 μmol/kg): 7%
- Death (%) ([6]; Dose 49.4 μmol/kg): 0%
- Average weight loss (%) ([6]; Dose 98.7 μmol/kg): 8%
- Death (%) ([6]; Dose 98.7 μmol/kg): 10%
- Average weight loss (%) ([6]; Dose 197.4 μmol/kg): 16%
- Death (%) ([6]; Dose 197.4 μmol/kg): 50%
- toxicity based on weight loss and mortality ([6]; xenograft bearing mice (FIG. 13E)): negligible
- LD50 ([7]; ip): > 197 µmol/kg
- MTD ([7]; ip): > 197 µmol/kg
- LD50 at 5 days ([7]; ip, i.p. 5×): > 197 µmol/kg
- MTD at 5 days ([7]; ip, i.p. 5×): 98.7 µmol/kg
- LD50 ([7]; iv): > 197 µmol/kg
- MTD ([7]; iv): > 197 µmol/kg
- LD50 at 5 days ([7]; iv, i.v. 5×): 197 µmol/kg
- MTD at 5 days ([7]; iv, i.v. 5×): 74 µmol/kg
- cell uptake ([8]; cell cultures not expressing legumain): remained extracellular
